Reference: the RNAGym collection of RNA variant scans (doi:10.7554/elife.90254)

B1: OR4K15 (parent)
chain: GUUAACGGUCAUAGGCCAUGGAAACUAGGAGCACCAUUUCGCUGCCAGUGAAGAAAUGAACAAAGAAAAUCUGGGCCAGGCAGGCAUCAAAAGAAAUAGUCUUGCGCUCAACCAGAAAGUCUGUAAUCAUUUUAAGGGUA

Variants of: B1
Assay: self-cleavage, relative activity (ratio to wild type); higher = more cleavage; in vitro, sequencing; the parent is a self-cleaving ribozyme

Variant	self-cleavage
GUUAACGGUCAUAGGCCAUGGAAACUAGGAGCACCAUUUCGCUGCCAGUGAGGAAAUGAACAAAGAAAAUCUGGGCCAGGCAGGCAUCAAAGGAAAUAGUCUUGCGCUCAACCAGAAAGUCUGUAAUCAUUUUAAGGGUA [A52G A92G]	1.34
GUUAACGGUCAUAGGCCAUGGAAACUAGGAGCACCAUUUCGCUGCCAGUGAGGAAAUGAACAAAGAAAAUCUGGGCCAGGCAGGCAUCAAAUGAAAUAGUCUUGCGCUCAACCAGAAAGUCUGUAAUCAUUUUAAGGGUA [A52G A92U]	1.52
GUUAACGGUCAUAGGCCAUGGAAACUAGGAGCACCAUUUCGCUGCCAGUGAGGAAAUGAACAAAGAAAAUCUGGGCCGGGCAGGCAUCAAAAGAAAUAGUCUUGCGCUCAACCAGAAAGUCUGUAAUCAUUUUAAGGGUA [A52G A78G]	0.28
GUUAACGGUCAUAGGCCAUGGAAACUAGGAGCACCAUUUCGCUGCCAGUGAGGAAAUGAACAAUGAAAAUCUGGGCCAGGCAGGCAUCAAAAGAAAUAGUCUUGCGCUCAACCAGAAAGUCUGUAAUCAUUUUAAGGGUA [A52G A64U]	0.82
GUUAACGGUCAUAGGCCAUGGAAACUAGGAGCACCAUUUCGCUGCCAGUGAGGAAAUGAACAACGAAAAUCUGGGCCAGGCAGGCAUCAAAAGAAAUAGUCUUGCGCUCAACCAGAAAGUCUGUAAUCAUUUUAAGGGUA [A52G A64C]	2.64
GUUAACGGUCAUAGGCCAUGGAAACUAGGAGCACCAUUUCGCUGCCAGUGAGGAAAUGAACAAGGAAAAUCUGGGCCAGGCAGGCAUCAAAAGAAAUAGUCUUGCGCUCAACCAGAAAGUCUGUAAUCAUUUUAAGGGUA [A52G A64G]	0.9
GUUAACGGUCAUAGGCCAUGGAAACUAGGAGCACCAUUUCGCUGCCAGUGAGGAAAUGACCAAAGAAAAUCUGGGCCAGGCAGGCAUCAAAAGAAAUAGUCUUGCGCUCAACCAGAAAGUCUGUAAUCAUUUUAAGGGUA [A52G A60C]	0.73
GUUAACGGUCAUAGGCCAUGGAAACUAGGAGCACCAUUUCGCUGCCAGUGAGGAAAUGAACAAAGAAAAUCUGGGCCAGGCAGGCAUCGAAAGAAAUAGUCUUGCGCUCAACCAGAAAGUCUGUAAUCAUUUUAAGGGUA [A52G A89G]	1.84
GUUAACGGUCAUAGGCCAUGGAAACUAGGAGCACCAUUUCGCUGCCAGUGAGGAAAUGAACAAAGAAAAUCUGGGCCAGGCAGGCAUCUAAAGAAAUAGUCUUGCGCUCAACCAGAAAGUCUGUAAUCAUUUUAAGGGUA [A52G A89U]	1.7
GUUAACGGUCAUAGGCCAUGGAAACUAGGAGCACCAUUUCGCUGCCAGUGAGGAAAUGAACAAAGAAAAUCUGGGCCAGGCAGGCCUCAAAAGAAAUAGUCUUGCGCUCAACCAGAAAGUCUGUAAUCAUUUUAAGGGUA [A52G A86C]	0.77
GUUAACGGUCAUAGGCCAUGGAAACUAGGAGCACCAUUUCGCUGCCAGUGAGGAAAUGAACAAAGAAAAUCUGGGCCAGGCAGGCUUCAAAAGAAAUAGUCUUGCGCUCAACCAGAAAGUCUGUAAUCAUUUUAAGGGUA [A52G A86U]	1.33
GUUAACGGUCAUAGGCCAUGGAAACUAGGAGCACCAUUUCGCUGCCAGUGAGGAAAUGUACAAAGAAAAUCUGGGCCAGGCAGGCAUCAAAAGAAAUAGUCUUGCGCUCAACCAGAAAGUCUGUAAUCAUUUUAAGGGUA [A52G A59U]	1.28
GUUAACGGUCAUAGGCCAUGGAAACUAGGAGCACCAUUUCGCUGCCAGUGAGGAAAUGGACAAAGAAAAUCUGGGCCAGGCAGGCAUCAAAAGAAAUAGUCUUGCGCUCAACCAGAAAGUCUGUAAUCAUUUUAAGGGUA [A52G A59G]	1.13
GUUAACGGUCAUAGGCCAUGGAAACUAGGAGCACCAUUUCGCUGCCAGUGAGGAAAUGAACAAAGAAAUUCUGGGCCAGGCAGGCAUCAAAAGAAAUAGUCUUGCGCUCAACCAGAAAGUCUGUAAUCAUUUUAAGGGUA [A52G A69U]	1.25
GUUAACGGUCAUAGGCCAUGGAAACUAGGAGCACCAUUUCGCUGCCAGUGACGAAAUGAACAAAGAAAAUCUGGGCCAGGCAGGCAUCAAAAGAAAUAGUCUUGCGCUCAACCAGAAAGUCUGUAAUCAUCUUAAGGGUA [A52C U131C]	1.53
GUUAACGGUCAUAGGCCAUGGAAACUAGGAGCACCAUUUCGCUGCCAGUGAGGAAAUGAACCAAGAAAAUCUGGGCCAGGCAGGCAUCAAAAGAAAUAGUCUUGCGCUCAACCAGAAAGUCUGUAAUCAUUUUAAGGGUA [A52G A62C]	1.53
GUUAACGGUCAUAGGCCAUGGAAACUAGGAGCACCAUUUCGCUGCCAGUGAGGGAAUGAACAAAGAAAAUCUGGGCCAGGCAGGCAUCAAAAGAAAUAGUCUUGCGCUCAACCAGAAAGUCUGUAAUCAUUUUAAGGGUA [A52G A54G]	1.41
GUUAACGGUCAUAGGCCAUGGAAACUAGGAGCACCAUUUCGCUGCCAGUGAGGAAGUGAACAAAGAAAAUCUGGGCCAGGCAGGCAUCAAAAGAAAUAGUCUUGCGCUCAACCAGAAAGUCUGUAAUCAUUUUAAGGGUA [A52G A56G]	0.76
GUUAACGGUCAUAGGCCAUGGAAACUAGGAGCACCAUUUCGCUGCCAGUGAGGAAAUGAACAAAGAAAAUCUGGGCCAGGCAGGCAUCAAGAGAAAUAGUCUUGCGCUCAACCAGAAAGUCUGUAAUCAUUUUAAGGGUA [A52G A91G]	1.01
GUUAACGGUCAUAGGCCAUGGAAACUAGGAGCACCAUUUCGCUGCCAGUGAGGACAUGAACAAAGAAAAUCUGGGCCAGGCAGGCAUCAAAAGAAAUAGUCUUGCGCUCAACCAGAAAGUCUGUAAUCAUUUUAAGGGUA [A52G A55C]	1.29
GUUAACGGUCAUAGGCCAUGGAAACUAGGAGCACCAUUUCGCUGCCAGUGAGGAUAUGAACAAAGAAAAUCUGGGCCAGGCAGGCAUCAAAAGAAAUAGUCUUGCGCUCAACCAGAAAGUCUGUAAUCAUUUUAAGGGUA [A52G A55U]	1.51
